Like-named read-outs stand apart in the source and are kept apart here.
Columns and labels:
[1] = tested on: hLTBP1-/hLTBP3-proTGFβ1 vs hGARP-/hLRRC33-proTGFβ1 complexes; assay: Solution equilibrium titration: relative affinity (bias) LTBP complexes vs cell-associated complexes; assay type: binding, human; settings: for Kd / (H) G/D (fold bias): MSD-SET; for (H) G/D (fold bias): ratio of average KD cell-associated / matrix-associated
Description: Context-biased: As used herein, “context-biased antibodies” refer to a type of conformational antibodies that binds an antigen with differential affinities when the antigen is associated with (i.e., bound to or attached to) an interacting protein or a fragment thereof. Thus, a context-biased antibody that specifically binds an epitope within proTGFβ1 may bind LTBP1-proTGFβ1, LTBP3-proTGFβ1, GARP-proTGFβ1 and LRRC33-proTGFβ1 with different affinities. […] Relative affinities of [matrix-associated complexes]: [cell-associated complexes] may be obtained by taking average KD values of the former, taking average KD values of the latter, and calculating the ratio of the two, as exemplified herein.
In a yet further aspect, the present disclosure provides context-biased TGFβ1 inhibitors. The context-biased antibodies include LTBP-biased antibodies with higher affinities for ECM-associated LLCs than for cell-associated LLCs wherein the affinities are measured at equilibrium.

[2] = target: T1, recombinant human GARP-proTGFβ1 complex (Homo sapiens, UniProt P01137); assay: Octet (Biolayer Interferometry) in vitro kinetic binding; settings: in M
T1 construct: made in house
T1 sequence (P01137 30-390): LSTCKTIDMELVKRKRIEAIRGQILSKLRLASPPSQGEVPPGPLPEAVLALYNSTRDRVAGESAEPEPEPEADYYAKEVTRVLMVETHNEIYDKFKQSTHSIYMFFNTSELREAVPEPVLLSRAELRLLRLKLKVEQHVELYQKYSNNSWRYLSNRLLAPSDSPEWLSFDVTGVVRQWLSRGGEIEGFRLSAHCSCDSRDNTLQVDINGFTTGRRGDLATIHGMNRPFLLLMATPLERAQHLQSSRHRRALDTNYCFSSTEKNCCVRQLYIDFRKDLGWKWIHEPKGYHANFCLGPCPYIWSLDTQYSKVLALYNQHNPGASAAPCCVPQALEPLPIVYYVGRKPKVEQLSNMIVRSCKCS
T1 sequence (Q14392 20-627 partner limits assumed): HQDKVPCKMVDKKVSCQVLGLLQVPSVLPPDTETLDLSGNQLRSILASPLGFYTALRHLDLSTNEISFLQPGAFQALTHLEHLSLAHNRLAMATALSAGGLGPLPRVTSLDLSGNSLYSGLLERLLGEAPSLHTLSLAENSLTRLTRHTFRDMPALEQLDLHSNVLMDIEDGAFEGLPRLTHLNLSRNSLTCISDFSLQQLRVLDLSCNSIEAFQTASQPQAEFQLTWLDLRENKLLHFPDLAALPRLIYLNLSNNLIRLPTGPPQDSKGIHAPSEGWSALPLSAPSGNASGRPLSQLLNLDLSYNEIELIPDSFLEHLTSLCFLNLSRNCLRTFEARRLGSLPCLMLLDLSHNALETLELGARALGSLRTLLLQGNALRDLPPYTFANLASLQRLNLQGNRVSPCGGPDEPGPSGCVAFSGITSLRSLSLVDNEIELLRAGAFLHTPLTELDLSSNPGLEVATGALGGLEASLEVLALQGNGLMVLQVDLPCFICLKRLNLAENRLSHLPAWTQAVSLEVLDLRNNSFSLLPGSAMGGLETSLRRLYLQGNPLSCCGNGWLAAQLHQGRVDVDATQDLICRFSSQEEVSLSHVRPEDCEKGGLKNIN
Description: (§1) Biolayer Interferometry (BLI):BLI is a label-free technology for optically measuring biomolecular interactions, e.g., between a ligand immobilized on the biosensor tip surface and an analyte in solution. BLI provides the ability to monitor binding specificity, rates of association and dissociation, or concentration, with precision and accuracy. BLI platform instruments are commercially available, for example, from ForteBio and are commonly referred to as the Octet® System.
(§2) BLI-based binding assays are widely used in the art for measuring affinities and kinetics of antibodies to antigens. It is a label-free technology in which biomolecular interactions are analyzed on the basis of optical interference. One of the proteins, for example, an antibody being tested, can be immobilized on the biosensor tip. When the other protein in solution, for example, an antigen, becomes bound to the immobilized antibody, it causes a shift in the interference pattern, which can be measured in real-time. This allows the monitoring of binding specificity, rates of association and dissociation, as well as concentration dependency. […] Due to its ease of use and fast results, BLI-based assays such as the Octet® system (available from ForteBio/Molecular Devices, Fremont Calif.), are particularly convenient when used as an initial screening method to identify and separate a pool of “binders” from a pool of “non-binders” or “weak binders” in the screening process.
(§3) Table 8 below provides non-limiting examples of high-affinity, context-independent proTGFβ1 antibodies encompassed by the present invention. The table provides representative results from in vitro binding assays, as measured by Octet®.
(§4) Column (A) of the table lists monoclonal antibodies with discrete amino acid sequences. […] Columns (B), (D), (E) and (F) provide affinities of each of the listed antibodies, measured in KD. […] Average KD values of (B) and (C) are shown in the corresponding column (D), which collectively represents affinities of the antibodies to ECM- or matrix-associated proTGFβ1 complexes. Similarly, Average KD values of (E) and (F) are shown in the corresponding column (G), which collectively represents affinities of the antibodies to cell-surface or cell-associated proTGFβ1 complexes. Finally, relative ratios between the average KD values from columns (D) and (G) are expressed as “fold bias” in column (H). Thus, the greater the number of column (H) is, the greater bias exists for the particular antibody, when comparing binding preferences of the antibody for matrix-associated complexes and cell-surface complexes. This is one way of quantitatively representing and comparing inherent bias of antibodies to their target complexes. Such analyses may be useful in guiding the selection process for a candidate antibody for particular therapeutic use.
(§5) In some embodiments, the binding affinity of an antibody, or antigen binding portion thereof, to an antigen (e.g., protein complex), such as presenting molecule-proTGFβ1 complexes, is determined using an Octet assay. In some embodiments, an Octet assay is an assay that determines one or more a kinetic parameters indicative of binding between an antibody and antigen. In some embodiments, an Octet® system (ForteBio, Menlo Park, Calif.) is used to determine the binding affinity of an antibody, or antigen binding portion thereof, to presenting molecule-proTGFβ1 complexes. For example, binding affinities of antibodies may be determined using the fortéBio Octet QKe dip and read label free assay system utilizing bio-layer interferometry. In some embodiments, antigens are immobilized to biosensors (e.g., streptavidin-coated biosensors) and the antibodies and complexes (e.g., biotinylated presenting molecule-proTGFβ1 complexes) are presented in solution at high concentration ([…]) to measure binding interactions. […]

[3] = target: T2, recombinant human LRRC33-proTGFβ1 complex (Homo sapiens, UniProt P01137); assay: as above; settings: in M
T2 construct: made in house
T2 sequence (P01137 30-390): as the sequence (P01137 30-390) above
T2 sequence (Q86YC3 19-650 partner limits assumed): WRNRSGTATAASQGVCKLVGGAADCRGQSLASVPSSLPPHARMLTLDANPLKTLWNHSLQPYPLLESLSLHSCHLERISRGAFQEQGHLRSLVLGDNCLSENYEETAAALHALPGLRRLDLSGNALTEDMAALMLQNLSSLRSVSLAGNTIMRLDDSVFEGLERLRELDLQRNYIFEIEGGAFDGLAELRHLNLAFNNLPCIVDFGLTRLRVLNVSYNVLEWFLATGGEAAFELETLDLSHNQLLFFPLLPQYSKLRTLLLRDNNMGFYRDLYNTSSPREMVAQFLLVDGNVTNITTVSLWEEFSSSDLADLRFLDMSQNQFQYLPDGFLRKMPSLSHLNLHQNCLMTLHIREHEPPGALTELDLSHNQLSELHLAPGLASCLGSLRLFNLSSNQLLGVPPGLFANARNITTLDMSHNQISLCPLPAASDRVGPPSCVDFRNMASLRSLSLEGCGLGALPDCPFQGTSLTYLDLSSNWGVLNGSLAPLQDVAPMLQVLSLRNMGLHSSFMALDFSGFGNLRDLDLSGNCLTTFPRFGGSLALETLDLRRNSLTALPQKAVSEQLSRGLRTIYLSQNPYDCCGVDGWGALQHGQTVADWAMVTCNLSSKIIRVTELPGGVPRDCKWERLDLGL
Description: as §1, §2, §3, §4, §5

[4] = target: T3, recombinant human LTBP1-proTGFβ1 complex (Homo sapiens, UniProt P01137); assay: as above; settings: in M
T3 construct: made in house; host or cells: Expi293F cells, transient co-transfection
T3 sequence (P01137 30-390): as the sequence (P01137 30-390) above
T3 sequence (Q14766 873-1507 partner): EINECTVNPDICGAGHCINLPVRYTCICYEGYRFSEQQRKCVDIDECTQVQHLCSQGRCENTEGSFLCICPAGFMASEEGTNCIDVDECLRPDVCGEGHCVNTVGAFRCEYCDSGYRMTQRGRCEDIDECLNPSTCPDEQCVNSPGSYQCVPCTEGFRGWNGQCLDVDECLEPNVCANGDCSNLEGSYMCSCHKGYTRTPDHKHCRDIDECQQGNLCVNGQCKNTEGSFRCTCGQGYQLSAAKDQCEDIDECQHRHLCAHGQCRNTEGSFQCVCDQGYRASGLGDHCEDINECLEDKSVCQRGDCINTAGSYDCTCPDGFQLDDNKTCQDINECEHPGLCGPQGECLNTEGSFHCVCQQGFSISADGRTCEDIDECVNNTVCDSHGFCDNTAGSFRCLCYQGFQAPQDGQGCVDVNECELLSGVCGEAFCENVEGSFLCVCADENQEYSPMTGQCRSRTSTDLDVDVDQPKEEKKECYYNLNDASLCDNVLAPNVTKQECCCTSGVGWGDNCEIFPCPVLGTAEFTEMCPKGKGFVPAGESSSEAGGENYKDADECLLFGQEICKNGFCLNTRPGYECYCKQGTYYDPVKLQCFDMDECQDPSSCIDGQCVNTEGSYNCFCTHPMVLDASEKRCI
Description: as §1, §2, §3, §4, §5

[5] = target: T4, recombinant human LTBP3-proTGFβ1 complex (Homo sapiens, UniProt P01137); assay: as above; settings: in M
T4 construct: made in house; host or cells: Expi293F cells, transient co-transfection
T4 sequence (P01137 30-390): as the sequence (P01137 30-390) above
T4 sequence (Q9NS15 866-1039 partner limits assumed): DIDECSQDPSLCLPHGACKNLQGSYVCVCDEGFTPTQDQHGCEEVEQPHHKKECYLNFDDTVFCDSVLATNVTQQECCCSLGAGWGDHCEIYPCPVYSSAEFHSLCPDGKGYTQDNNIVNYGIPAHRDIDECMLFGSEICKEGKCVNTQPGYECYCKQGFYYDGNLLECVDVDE
Description: as §1, §2, §3, §4, §5

[6] = average KD of (B) and (C), read-out: (D) ECM AVRG
[7] = average KD of (E) and (F), read-out: (G) Cell AVRG

Row | Molecule | Kd [1, 6] [nM] | Kd [1, 7] [nM] | (H) G/D (fold bias) [1] [fold] | (E) hGARP, Cell-associated proTGFb1 (KD) [2] | (F) hLRRC33, Cell-associated proTGFb1 (KD) [3] | (B) hLTBP1, Matrix-associated proTGFb1 (KD) [4] | (C) hLTBP3, Matrix-associated proTGFb1 (KD) [5] | matrix/LTBP-bias in relative affinities between at least one matrix-associated and at least one cell-associated complex [1] | average affinity for human LTBP1-/LTBP3-proTGFβ1 relative to human GARP-/LRRC33-proTGFβ1 complexes (LTBP-biased) ([1]; solution equilibrium titration)
1 | Ab22: monoclonal antibody; VH SEQ ID NO: 130, VL SEQ ID NO: 15 (antibody, V domains shown) VH: EVQLVESGGGLVQPGGSLRLSCAASGFTFGSFSMNWVRQAPGKGLEWVSYIHSDASTIYYADSVKGRFTISRDNAKNSLYLQMNSLRAEDTAVYYCARGVLDYGDMLDPWGQGTLVTVSS VL: DIQMTQSPSSLSASVGDRVTITCQASQDITNYLNWYQQKPGKAPKLLIYDASNLETGVPSRFSGSGSGTDFTFTISSLQPEDIATYYCQQADNHPPWTFGGGTKVEIK | 0.042 | 0.114 | 2.71 | 9.74E−10 | 4.15E−10 | 3.18E−10 | 3.29E−10 | – | –
2 | Ab24: monoclonal antibody; VH SEQ ID NO: 132, VL SEQ ID NO: 15 (antibody, V domains shown) VH: EVQLVESGGGLVQPGRSLRLSCAASGFTFSSFAMYWVRQAPGKGLEWVSYISPDASTIYYADSVKGRFTISRDNAKNSLYLQMNSLRAEDTAVYYCARGVLDYGDMLDPWGQGTLVTVSS VL: DIQMTQSPSSLSASVGDRVTITCQASQDITNYLNWYQQKPGKAPKLLIYDASNLETGVPSRFSGSGSGTDFTFTISSLQPEDIATYYCQQADNHPPWTFGGGTKVEIK | 0.023 | 0.1 | 4.35 | 6.65E−10 | 4.10E−10 | 2.46E−10 | 1.98E−10 | – | –
3 | Ab30: monoclonal antibody; VH SEQ ID NO: 138, VL SEQ ID NO: 15 (antibody, V domains shown) VH: EVQLVESGGGLVQPGGSLRLSCAASGFTFSSFSMDWVRQAPGKGLEWVSYISPDASTIYYADSVKGRFTISRDNAKNSLYLQMNSLRAEDTAVYYCARGTLDYGDMLDPWGQGTLVTVSS VL: DIQMTQSPSSLSASVGDRVTITCQASQDITNYLNWYQQKPGKAPKLLIYDASNLETGVPSRFSGSGSGTDFTFTISSLQPEDIATYYCQQADNHPPWTFGGGTKVEIK | 0.029 | 0.081 | 2.80 | 8.33E−10 | 5.35E−10 | 3.32E−10 | 2.61E−10 | – | –
4 | Ab29: monoclonal antibody; VH SEQ ID NO: 137, VL SEQ ID NO: 15 (antibody, V domains shown) VH: EVQLVESGGGLVQPGRSLRLSCAASGFTFSSFAMNWVRQAPGKGLEWVSYISPDASTIYYAGSVKGRFTISRDNAKNSLYLQMNSLRAEDTAVYYCVRAVLDYGDMLDPWGQGTLVTVSS VL: DIQMTQSPSSLSASVGDRVTITCQASQDITNYLNWYQQKPGKAPKLLIYDASNLETGVPSRFSGSGSGTDFTFTISSLQPEDIATYYCQQADNHPPWTFGGGTKVEIK | – | 0.024 | 2.00 | 3.07E−10 | 3.02E−10 | 1.89E−10 | 1.21E−10 | – | –
5 | Ab26: monoclonal antibody; VH SEQ ID NO: 134, VL SEQ ID NO: 15 (antibody, V domains shown) VH: EVQLVESGGGLVQPGGSLRLSCAASGFTFSSFSMDWVRQAPGKGLEWVSYISPDASTIYYADSVKGRFTISRDNAKNTLYLQMNSLRAEDTAVYYCARGVLDYGDMLDPWGQGTLVTVSS VL: DIQMTQSPSSLSASVGDRVTITCQASQDITNYLNWYQQKPGKAPKLLIYDASNLETGVPSRFSGSGSGTDFTFTISSLQPEDIATYYCQQADNHPPWTFGGGTKVEIK | 0.026 | 0.072 | 2.77 | 6.25E−10 | 3.60E−10 | 2.21E−10 | 1.73E−10 | – | –
6 | Ab11: monoclonal antibody; VH SEQ ID NO: 239, VL SEQ ID NO: 241 (antibody, V domains shown) VH: EVQLLESGGGLVQPGGSLRLSCAASGFTFRNYAMSWVRQAPGKGLEWVSSISGSGGATYYADSVKGRFTISRDNSKNTLYLQMNSLRAEDTAVYYCARVSSGHWDFDYWGQGTLVTVSS VL: DIQLTQSPSSLSASVGDRVTITCRASQSISSYLNWYQQKPGKAPKLLIYAASNLQSGVPSRFSGSGSGTDFTLTISSLQPEDFATYYCQQTYTVPLTFGGGTKVEIK | – | 4.65 | 3.87 | 8.42E−10 | 5.55E−10 | 1.67E−10 | 1.54E−10 | more than five-fold | –
7 | Ab20: monoclonal antibody; VH SEQ ID NO: 251, VL SEQ ID NO: 241 (antibody, V domains shown) VH: EVQLLESGGGLVQPGGSLRLSCAASGFTFSAYAMTWVRQAPGKGLEWVSAISGSGGVTYYADSVKGRFTISRDNSKNTLYLQMNSLRAEDTAVYYCARVSSGHWDYDYWGQGTLVTVSS VL: DIQLTQSPSSLSASVGDRVTITCRASQSISSYLNWYQQKPGKAPKLLIYAASNLQSGVPSRFSGSGSGTDFTLTISSLQPEDFATYYCQQTYTVPLTFGGGTKVEIK | 0.2 | – | 6.75 | 8.84E−10 | 5.45E−10 | 1.92E−10 | 1.31E−10 | more than five-fold | proTGFβ1 and LTBP3-proTGFβ1 complexes is at least five-fold
